Data set [1] deals with M1 mAChR. The class given is physicochemical. Particulars: for stability relative to wild-type (retention of bound 3H-NMS), in words: BOG or DDM; for Stability (βOG in-situ) % L65A control / in-situ stability relative to L65A, in words: 0.82% β-octyl glucoside; for Stability (βOG in-situ) % L65A control / % 3H-NMS retained BOG / % loss/wt / mean % retained: 3 h, 4° C.; for Stability (βOG in-situ) % L65A control: % loss(control)/% loss(mutant), mean±SEM of 3; for in-situ stability relative to L65A, in words: L65A background; for % 3H-NMS retained BOG / % loss/wt / mean % retained: 0.82% BOG; for % 3H-NMS retained BOG: whole E. coli BL21 cells, single culture; for % loss/wt: % loss relative to wild-type control; for mean % retained: mean of the cultures. The protocol: This concentration was determined by analysing wild-type M1 mAChRs expressed in the inner cell membranes of intact E. Coli strain BL21 cells. The cells were pre-labelled with the radiolabelled antagonist 3H—N-methyl scopolamine and resuspended to a pre-determined cell density (Absorbance at 600 nm=2.0) in a chosen buffer (in this case 50 mM sodium phosphate, 1 mM EDTA, pH 7.5). […] The wild-type M1 mAChRs were titrated by the addition of increasing concentrations of beta octyl glucoside dissolved in the same buffer for different times (e.g. 1 h, 2 h, 3 h, 5 h, 15 h) and at different temperatures (e.g. 4° C., 15° C.). The loss of specifically-bound radioligand was then measured after recovering the cells by centrifugation (15000×g, 15 min.). In the example, the centrifugation step was performed on duplicate 1 ml aliquots of the cells. The experiment was repeated 3 times. […] It will be appreciated that the cell density, detergent concentration and other parameters of the assay may be varied to adjust the loss of activity as appropriate.
(a) A state of in-situ destabilisation of a particular membrane protein in a particular cell membrane as a result of the addition of a particular concentration of a particular detergent, can be defined by the loss of the characteristic specific ligand binding activity of the membrane protein for a particular ligand of interest in the presence of a defined concentration of a particular detergent molecule or other solubilising agent.
A preferred version of the assay is destabilisation of a membrane protein-ligand complex in a detergent-enriched membrane. The membrane protein, either in a membrane preparation, or in intact cells in-vivo or ex-vivo, is pre-incubated with a labelled version of the ligand, the label, for instance, being a radioactive label, or a fluorescent label, and the binding step preferably being allowed to proceed to equilibrium, defined as the achievement of a time-invariant level of binding. To define membrane protein-independent, or non-specific, binding the binding step is performed with the addition of a second non-labelled ligand, called the competing ligand, having an appropriate membrane protein-specific pharmacology, at a concentration sufficient fully to occupy the binding sites of the membrane protein and thereby exclude the binding of the labelled ligand. The difference between the binding of the labelled ligand in the absence and presence of the competing ligand is defined as the specific binding of the labelled ligand. Measurement of binding requires a suitable method for separating and measuring bound ligand. Characteristically, this involves centrifugation of intact cells or membranes for a time and at a centrifugal force adequate to pellet them (for instance, 15000×g for 15 min in the case of E. coli cells, or 100,000×g for plasma membrane preparations), or filtration of a membrane suspension e.g. through a suitable filter paper such as glass fibre paper e.g. GF-B or GF-C followed by counting of radioactivity. Alternatively, it might involve the measurement of an optical signal such as enhancement of fluorescence emission in the case of fluorescent ligands.
To perform the in-situ destabilisation assay, a pre-determined concentration of the detergent or other destabilising agent of choice is mixed with a membrane or cell suspension containing the pre-labelled membrane protein in an appropriate buffer composition at a particular temperature and for a particular time, determined as described below.

The test system of data set [2] is M1 mAChR. Put plainly: thermal stability (Tm) of partially purified [3H]NMS-labelled receptors in 0.1% dodecyl-β-maltoside. The class given is physicochemical, rat. Particulars: for Tm (0.1% DDM): incubation time 30 min, mean±range/SEM; for thermal stability (Tm) relative to L65A, in words: partially purified mutants; for Tm (0.1% DDM) / thermal stability (Tm) relative to L65A, in words: 0.1% DDM. On the procedure: For measurements of thermal melting temperature (Tm), [3H]NMS-labelled receptors were partially purified by immobilized metal ion affinity chromatography from cultures grown from single clones expressed in E. Coli BL21 cells, essentially as described in Hulme and Curtis, 1998 (21). Tm measurements were carried out after gel-filtration of partially purified receptors into 50 mM sodium phosphate, 5 mM β-mercaptoethanol and 0.1% dodecyl-β-maltoside (DDM), using an incubation time of 30 min. Values were tabulated as mean±range/SEM of 2 or more independent measurements (Table 3).

These results are taken from patent US9081020B2, “Mutant proteins and methods for selecting them” (Heptares Therapeutics Limited, priority 2008, dated 2015).

Residue numbers refer to the chain shown, from its start. In names and notes the source's numbering stands. Where two headings read alike, the source gives them in different places.

B1: M145A: Ala-mutant in the transmembrane region of the M1 mAChR (protein)
chain: MNTSAPPAVSPNITVLAPGKGPWQVAFIGITTGLLSLATVTGNLLVLISFKVNTELKTVNNYFLLSLACADLIIGTFSMNLYTTYLLMGHWALGTLACDLWLALDYVASNASVMNLLLISFDRYFSVTRPLSYRAKRTPRRAALAIGLAWLVSFVLWAPAILFWQYLVGERTVLAGQCYIQFLSQPIITFGTAMAAFYLPVTVMCTLYWRIYRETENRARELAALQGSETPGKGGGSSSSSERSQPGAEGSPETPPGRCCRCCRAPRLLQAYSWKEEEEEDEGSMESLTSSEGEEPGSEVVIKMPMVDPEAQAPTKQPPRSSPNTVKRPTKKGRDRAGKGQKPRGKEQLAKRKTFSLVKEKKAARTLSAILLAFILTWTPYNIMVLVSTFCKDCVPETLWELGYWLCYVNSTINPMCYALCNKAFRDTFRLLLLCRWDKRRWRKIPKRPGSVHRTPSRQC
As to B1, the “stability relative to wild-type (retention of bound 3H-NMS), in words” value with M1 mAChR [1] is “smaller enhancements”.

B2: L151A: Ala-mutant in the transmembrane region of the M1 mAChR (protein)
chain: B1 chain with A145M, L151A
Turning to B2, in the data set with M1 mAChR [1], the “stability relative to wild-type (retention of bound 3H-NMS), in words” value is “smaller enhancements”.

B3: L65A/I73A: M1 mAChR double mutant, Ala mutation on L65A background (protein, UniProt P11229 1-460, looked up, variant L65A I73A)
Muscarinic acetylcholine …: B1 chain with L65A, I73A, A145M
As for B3, in the data set on M1 mAChR [2], the “Tm (0.1% DDM)” value stood at 27.0 ± 0.5 °C and the “thermal stability (Tm) relative to L65A, in words” value was “reduced stability”. In addition, in the data set on M1 mAChR [1], the “Stability (βOG in-situ) % L65A control” value was 46 ± 2 % L65A control and the “in-situ stability relative to L65A, in words” value is given as “significantly reduced stability”.

B4: L65A + L151A: M1 mAChR double mutant (protein)
chain: B1 chain with L65A, A145M, L151A
With B4, the “% 3H-NMS retained BOG” value with M1 mAChR [1] (listed as L65A + L151A 1) is on record as 70%. Moreover, in the data set on M1 mAChR [1] (listed as L65A + L151A 2), the “% 3H-NMS retained BOG” value was found to be 76%. Further, in the data set on M1 mAChR [1], the “% loss/wt” value turned out to be 0.51 and the mean % retained was 73%.

B5: C69A: Ala-mutant in the transmembrane region of the M1 mAChR (protein)
chain: B1 chain with C69A, A145M
On to B5, for which, in the data set with M1 mAChR [1], the “stability relative to wild-type (retention of bound 3H-NMS), in words” value was “reductions”.

B6: L148A: M1 mAChR mutant L148A (protein)
chain: B1 chain with A145M, L148A
Take B6: the “% 3H-NMS retained BOG” value with M1 mAChR [1] (listed as L148A 1) is 74%. Further, in the data set on M1 mAChR [1] (listed as L148A 2), the “% 3H-NMS retained BOG” value is given as 69%. Also, in the data set on M1 mAChR [1], the “% loss/wt” value came to 0.54 and the mean % retained amounted to 71.5%.

B7: L65G: M1 mAChR mutant L65G recovered by randomisation of the codon for position 65 (protein)
chain: B1 chain with L65G, A145M
Turning to B7, the “% 3H-NMS retained BOG” value in the data set on M1 mAChR [1] (listed as L65 G 1) is given as 49%. In addition, the “% 3H-NMS retained BOG” value in the data set with M1 mAChR [1] (listed as L65 G 2) was found to be 39%. Further, in the data set on M1 mAChR [1], the “% loss/wt” value is 1.06 and the mean % retained came to 44%.

B8: I119A: Ala-mutant in the transmembrane region of the M1 mAChR (protein)
chain: B1 chain with I119A, A145M
With B8, the “stability relative to wild-type (retention of bound 3H-NMS), in words” value in the data set on M1 mAChR [1] was “reductions”.

B9: L65A + M145A: M1 mAChR double mutant (protein)
chain: B1 chain with L65A
For the molecule B9, the “% 3H-NMS retained BOG” value with M1 mAChR [1] (listed as L65A + M145A 1) turned out to be 91%. The “% 3H-NMS retained BOG” value in the data set on M1 mAChR [1] (listed as L65A + M145A 2) is given as 73%. In addition, in the data set with M1 mAChR [1], the “% loss/wt” value is 0.34 and the mean % retained stood at 82%.

B10: L65A/I74A: M1 mAChR double mutant, Ala mutation on L65A background (protein, UniProt P11229 1-460, looked up, variant L65A I74A)
Muscarinic acetylcholine …: B1 chain with L65A, I74A, A145M
Regarding B10, in the data set on M1 mAChR [2], the “Tm (0.1% DDM)” value turned out to be 28.8 ± 0.5 °C and the “thermal stability (Tm) relative to L65A, in words” value is recorded as “no change”. In addition, in the data set with M1 mAChR [1], the “Stability (βOG in-situ) % L65A control” value came out at 51 ± 3 % L65A control and the “in-situ stability relative to L65A, in words” value was “significantly reduced stability”.

B11: I383/21: Sequencing established that I383/21 is I383G (M1 mAChR) (protein, UniProt P11229 1-460, looked up, variant I383G)
Muscarinic acetylcholine …: B1 chain with A145M, I383G
For B11, the “% 3H-NMS retained BOG” value in the data set on M1 mAChR [1] (listed as I383/21 1) amounted to 70%. In addition, the “% 3H-NMS retained BOG” value in the data set on M1 mAChR [1] (listed as I383/21 2) stood at 62%. In the data set with M1 mAChR [1], the “% loss/wt” value is reported as 0.64 and the mean % retained turned out to be 66%.

B12: M384/40: Sequencing established that M384/40 is M384G (M1 mAChR) (protein, UniProt P11229 1-460, looked up, variant M384G)
Muscarinic acetylcholine …: B1 chain with A145M, M384G
For B12, the figures for the “% 3H-NMS retained BOG” value with M1 mAChR [1] (listed as M384/40 1) and in the data set on M1 mAChR [1] (listed as M384/40 2) were 71% and 82%, respectively. In the data set on M1 mAChR [1], the “% loss/wt” value was determined as 0.44. In addition, the mean % retained with M1 mAChR [1] turned out to be 76.5%.

B13: M384/27: Sequencing established that M384/27 is M384C (M1 mAChR) (protein, UniProt P11229 1-460, looked up, variant M384C)
Muscarinic acetylcholine …: B1 chain with A145M, M384C
B13: the “% 3H-NMS retained BOG” value in the data set with M1 mAChR [1] (listed as M384/27 1) worked out at 63%. The “% 3H-NMS retained BOG” value in the data set with M1 mAChR [1] (listed as M384/27 2) is 73%. In addition, in the data set with M1 mAChR [1], the “% loss/wt” value turned out to be 0.6 and the mean % retained is listed as 68%.

B14: I73L: M1 mAChR mutant, substitution of another aliphatic amino acid at Ile 73 (protein)
chain: B1 chain with I73L, A145M
B14: in the data set with M1 mAChR [2] (0.1% dodecyl maltoside), the “extra increment of stability (full thermal stability assay)” value stood at 0.9 °C.
